2 molecules from patent US20240279288A1, “APPLICATION OF PLANT JAZ PROTEINS AND DERIVED POLYPEPTIDES IN PREVENTION AND TREATMENT OF HUMAN AND ANIMAL TUMORS” (ANYANG INSTITUTE OF SINO-COTTON INDUSTRY INNOVATION, priority 2021, published 2024) can be followed below.

The subject of one assay is GhMYC2. Description: Yeast two hybrid with GhMYC2. The format is binding, cotton. As to the method:
(§1) The study on Arabidopsis had shown that the inhibition of JAZ protein on JA signaling was mainly achieved by inhibiting the transcription factor function of MYC, which had been experimentally verified by us in cotton. Based on the phylogenetic tree of Arabidopsis and cotton JAZs, we screened 6 cotton JAZs (GhJAZ1, GhJAZ7, GhJAZ9, GhJAZ10, GhJAZ11 and GhJAZ31), which were analyzed with GhMYC2, GhNINJA, GhTPL, GhHDA6, and GhCOI1 for yeast two hybrid. The amino acid sequence of GhJAZ1 was set forth in SEQ ID No. 4, and the corresponding encoding gene sequence was set forth in SEQ ID No. 39; the amino acid sequence of GhJAZ7 was set forth in SEQ ID No. 7, and the corresponding encoding gene sequence was set forth in SEQ ID No. 42; the amino acid sequence of GhJAZ9 was set forth in SEQ ID No. 2, and the corresponding encoding gene sequence was set forth in SEQ ID No. 37; the amino acid sequence of GhJAZ10 was set forth in SEQ ID No. 3, and the corresponding encoding gene sequence was set forth in SEQ ID No. 38; the amino acid sequence of GhJAZ11 was set forth in SEQ ID No. 5, and the corresponding encoding gene sequence was set forth in SEQ ID No. 40; and the amino acid sequence of GhJAZ31 was set forth in SEQ ID No. 9, and the corresponding encoding gene sequence was set forth in SEQ ID No. 44. The amino acid sequence of GhMYC2 was set forth in SEQ ID No. 71, and the corresponding encoding gene sequence was set forth in SEQ ID No. 72; the amino acid sequence of GhNINJA was set forth in SEQ ID No. 73, and the corresponding encoding gene sequence was set forth in SEQ ID No. 74; the amino acid sequence of GhTPL was set forth in SEQ ID No. 75, and the corresponding encoding gene sequence was set forth in SEQ ID No. 76; the amino acid sequence of GhHDA6 was set forth in SEQ ID No. 77, and the corresponding encoding gene sequence was set forth in SEQ ID No. 78; and the amino acid sequence of GhCOI1 was set forth in SEQ ID No. 79, and the corresponding encoding gene sequence was set forth in SEQ ID No. 80. […]

A further assay has as its system GhTPL. As to the kind of experiment: Yeast two hybrid with GhTPL. The format is binding, cotton. As to the method: as §1
Chain of GhTPL (as listed by the source): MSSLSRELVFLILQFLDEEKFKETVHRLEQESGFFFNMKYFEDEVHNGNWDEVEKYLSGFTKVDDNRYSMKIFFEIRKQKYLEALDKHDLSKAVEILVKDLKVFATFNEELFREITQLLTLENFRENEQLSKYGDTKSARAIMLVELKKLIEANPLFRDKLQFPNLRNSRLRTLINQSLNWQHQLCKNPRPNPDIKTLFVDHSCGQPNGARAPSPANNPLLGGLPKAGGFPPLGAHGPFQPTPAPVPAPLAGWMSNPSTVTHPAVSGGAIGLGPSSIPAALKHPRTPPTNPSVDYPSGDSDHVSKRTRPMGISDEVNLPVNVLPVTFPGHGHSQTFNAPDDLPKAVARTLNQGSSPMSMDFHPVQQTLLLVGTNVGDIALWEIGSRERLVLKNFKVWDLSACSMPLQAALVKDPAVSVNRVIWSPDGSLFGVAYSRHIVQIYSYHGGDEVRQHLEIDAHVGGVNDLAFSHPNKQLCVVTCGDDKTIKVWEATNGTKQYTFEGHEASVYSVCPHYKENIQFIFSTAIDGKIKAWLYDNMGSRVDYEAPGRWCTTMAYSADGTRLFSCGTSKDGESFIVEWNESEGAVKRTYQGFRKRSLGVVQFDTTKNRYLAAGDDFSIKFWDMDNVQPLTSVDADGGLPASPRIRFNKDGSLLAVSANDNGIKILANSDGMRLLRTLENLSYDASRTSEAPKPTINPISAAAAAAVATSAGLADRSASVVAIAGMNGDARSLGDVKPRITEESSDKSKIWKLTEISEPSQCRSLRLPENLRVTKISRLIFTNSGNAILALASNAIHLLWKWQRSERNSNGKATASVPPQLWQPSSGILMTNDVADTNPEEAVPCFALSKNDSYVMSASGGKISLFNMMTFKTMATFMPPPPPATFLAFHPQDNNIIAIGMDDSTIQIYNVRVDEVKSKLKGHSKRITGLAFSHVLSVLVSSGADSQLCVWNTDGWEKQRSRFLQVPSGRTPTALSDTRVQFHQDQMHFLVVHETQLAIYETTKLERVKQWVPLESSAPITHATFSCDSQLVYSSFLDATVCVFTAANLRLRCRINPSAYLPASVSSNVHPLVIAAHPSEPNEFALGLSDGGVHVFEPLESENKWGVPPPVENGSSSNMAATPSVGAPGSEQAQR
Assay [1] deals with GhHDA6. Description: Yeast two hybrid with GhHDA6. The class given is binding, cotton. As for the experimental part:
as §1, with “44.” for “44. The amino acid sequence of GhMYC2 was set forth in SEQ ID No. 71, and the corresponding encoding gene sequence was set forth in SEQ ID No. 72; the amino acid sequence of GhNINJA was set forth in SEQ ID No. 73, and the corresponding encoding gene sequence was set forth in SEQ ID No. 74; the amino acid sequence of GhTPL was set forth in SEQ ID No. 75, and the corresponding encoding gene sequence was set forth in SEQ ID No. 76; the amino acid sequence of GhHDA6 was set forth in SEQ ID No. 77, and the corresponding encoding gene sequence was set forth in SEQ ID No. 78; and the amino acid sequence of GhCOI1 was set forth in SEQ ID No. 79, and the corresponding encoding gene sequence was set forth in SEQ ID No. 80.”

In another assay the test system is GhCOI1. As to the kind of experiment: Yeast two hybrid with GhCOI1. Conditions: in the presence of JA-Ile. The class given is binding, cotton. As to the method: as §1
Chain of GhCOI1 (as listed by the source): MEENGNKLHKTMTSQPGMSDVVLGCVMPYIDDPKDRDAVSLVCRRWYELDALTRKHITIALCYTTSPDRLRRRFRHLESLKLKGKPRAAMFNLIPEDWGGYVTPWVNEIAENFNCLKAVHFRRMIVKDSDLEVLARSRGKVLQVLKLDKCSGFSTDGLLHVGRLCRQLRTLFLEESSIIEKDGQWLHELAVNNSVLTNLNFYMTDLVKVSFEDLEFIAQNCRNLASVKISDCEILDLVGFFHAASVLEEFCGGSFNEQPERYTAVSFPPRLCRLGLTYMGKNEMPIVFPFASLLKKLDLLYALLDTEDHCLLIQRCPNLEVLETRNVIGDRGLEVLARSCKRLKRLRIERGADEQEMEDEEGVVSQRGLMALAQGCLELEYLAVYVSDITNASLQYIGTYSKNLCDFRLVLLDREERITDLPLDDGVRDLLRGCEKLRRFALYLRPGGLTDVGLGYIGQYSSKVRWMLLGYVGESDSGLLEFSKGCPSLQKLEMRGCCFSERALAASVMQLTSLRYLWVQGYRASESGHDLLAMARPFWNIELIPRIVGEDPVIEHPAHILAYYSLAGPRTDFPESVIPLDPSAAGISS
Assay [2] has as its system GhHDA6. As to the kind of experiment: CO-IP experiment with GhHDA6. The class given is binding, cotton. As to the method: (§2) Steps of method of CO-IP experiment: Non-denaturing lysate was added to 293T cell culture plate (Pricella, Cat. No.: CL-0005), and the cells were completely lysed at 4° C. The lysate was centrifuged at 12,000 rpm for 10 min and the supernatant was collected. The corresponding antibody was added to the obtained non-denatured protein solution, which was incubated overnight at 4° C. Pierce™ protein A/G magnetic agarose (Thermo Fisher Scientific, Inc.) were washed with lysis buffer, followed by addition pre-treated beads to the cell lysate, and incubation at room temperature for 2 hours. The mixture was centrifuged at 4° C., 2,500 rpm for 5 min with supernatant removed, and the agarose beads were washed 5 times with 1 ml of lysis buffer. An appropriate amount of protein loading buffer was added to the pellet, and the sample was incubated in water bath at 100° C. for 10 min. The band of interest was detected by Western blotting.
Chain of GhHDA6 (as listed by the source): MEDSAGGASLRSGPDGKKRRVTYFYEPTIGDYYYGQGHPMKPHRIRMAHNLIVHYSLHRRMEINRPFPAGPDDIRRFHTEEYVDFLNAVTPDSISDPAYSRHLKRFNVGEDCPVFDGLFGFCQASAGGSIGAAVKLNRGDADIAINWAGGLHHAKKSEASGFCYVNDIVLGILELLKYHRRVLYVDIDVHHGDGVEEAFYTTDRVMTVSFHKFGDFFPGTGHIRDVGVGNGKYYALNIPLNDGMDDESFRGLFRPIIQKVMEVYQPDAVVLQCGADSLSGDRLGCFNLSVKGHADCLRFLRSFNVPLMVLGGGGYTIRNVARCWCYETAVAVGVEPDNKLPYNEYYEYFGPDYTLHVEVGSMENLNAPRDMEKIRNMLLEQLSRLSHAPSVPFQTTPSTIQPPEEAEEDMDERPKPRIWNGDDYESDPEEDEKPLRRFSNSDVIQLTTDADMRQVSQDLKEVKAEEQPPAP

Another assay addresses uPAR (Homo sapiens, UniProt Q03405). As to the kind of experiment: CO-IP experiment with uPAR. The class given is binding. The settings on record: in vivo. As to the method:
as §2, with “The mixture was centrifuged at 4° C., 2,500 rpm for 5 min with supernatant removed, and the agarose beads were washed 5 times with 1 ml of lysis buffer. An appropriate amount of protein loading buffer was added to the pellet, and the sample was incubated in water bath at 100° C. for 10 min.” left out
In order to explore how GhJAZ1 enters cancer cells, we cloned the genes of most tumor surface receptors, including uPAR (NCBI database accession number of NM_002659.4), CCK1R (NP_000721.1), CCK2R (NP_001350481.1), HER2 (NP_004439.2), GRPR (NP_005305.1), MUC1 (NP_001358649.1), VEGFR1 (NP_002010.2), Insulin receptor (NM_000208.4), NTR (XM_011528827.2), PSMA (XM_017017432.1), TFR1 (NM_001128148.3), TFR2 (NM_003227.4), PEPT1 (NM_005073.4), APN (NM_001150.3). […] We detected the interaction of GhJAZ1 with uPA (as the ligand of uPAR, NCBI database accession number of NP_002649.2) and uPAR by yeast two hybrid (the steps of the experiment as Example 3). […]

Chain of GhMYC2 (as listed by the source): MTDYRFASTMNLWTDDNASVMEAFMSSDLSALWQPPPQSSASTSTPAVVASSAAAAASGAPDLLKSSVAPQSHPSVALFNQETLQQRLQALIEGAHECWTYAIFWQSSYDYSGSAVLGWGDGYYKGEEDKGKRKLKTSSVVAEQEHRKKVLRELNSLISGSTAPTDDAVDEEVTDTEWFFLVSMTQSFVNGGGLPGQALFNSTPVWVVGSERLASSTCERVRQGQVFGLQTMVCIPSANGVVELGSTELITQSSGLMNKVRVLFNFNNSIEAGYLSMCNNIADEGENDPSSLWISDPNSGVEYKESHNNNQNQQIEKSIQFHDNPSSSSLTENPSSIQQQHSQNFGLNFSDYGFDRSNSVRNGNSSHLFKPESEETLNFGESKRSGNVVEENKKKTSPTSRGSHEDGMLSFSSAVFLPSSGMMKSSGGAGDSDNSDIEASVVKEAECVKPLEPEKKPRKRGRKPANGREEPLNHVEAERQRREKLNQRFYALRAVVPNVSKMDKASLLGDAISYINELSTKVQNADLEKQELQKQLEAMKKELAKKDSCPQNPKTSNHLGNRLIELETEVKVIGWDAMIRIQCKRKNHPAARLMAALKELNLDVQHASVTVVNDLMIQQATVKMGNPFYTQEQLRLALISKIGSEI
Chain of uPAR (Q03405 23-305): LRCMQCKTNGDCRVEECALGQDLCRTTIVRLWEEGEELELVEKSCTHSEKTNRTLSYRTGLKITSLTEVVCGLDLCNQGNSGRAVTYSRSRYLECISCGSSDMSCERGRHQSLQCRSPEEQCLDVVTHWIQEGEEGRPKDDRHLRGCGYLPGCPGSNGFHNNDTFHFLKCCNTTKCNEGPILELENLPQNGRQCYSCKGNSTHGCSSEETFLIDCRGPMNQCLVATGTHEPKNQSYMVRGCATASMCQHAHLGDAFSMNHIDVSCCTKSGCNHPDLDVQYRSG

B1: GhJAZ1 after deletion of NT domain: GhJAZ1 mutant with NT domain deleted, protein sequence SEQ ID No. 83 (protein)
chain: MSSCSESTAMKPARSPEANGTPVVPPPTMNLFPLNDKSDDVCGRNGGNPKNLTSMDLFPQQAGLASKDDSPNKLEPQTAPMTIFYGGQVIVFNDFPANKAKEIMLLASNSSSQSNNSFNPIPFTSSIARSPIESSIGVPPTSKPVHPAQRAVPGDLPIARRASLHRFLEKRKDRITAKAPYQINNSAAAPSLSGDNKSWLGLAAQSP
Consider B1, for which, in the assay on GhMYC2, the “interaction with GhMYC2” value is reported as “significantly weakened”. Further, in the assay on GhTPL, the “interaction with GhTPL” value is on record as “significantly weakened”. Further, in the assay with GhHDA6 [1], the “interaction with GhHDA6” value is listed as “significantly weakened”. Also, in the assay with GhCOI1, the “interaction with GhCOI1” value was “significantly weakened”.

B2: GhJAZ1: cotton JAZ1 protein, gene number Gh_A05G0260, sequence SEQ ID No. 4; prokaryotically expressed with His tag, about 30 KD (protein)
chain: MSSCSESTAMKPARSPEKPSFAQTCNLLSQYLKEKGSFGDLSLGMTCNVEANGTPVVPPPTMNLFPLNDKSDDVCGRNGGNPKNLTSMDLFPQQAGLASKDDSPNKLEPQTAPMTIFYGGQVIVFNDFPANKAKEIMLLASNSSSQSNNSFNPIPFTSSIARSPIESSIGVPPTSKPVHPAQRAVPGDLPIARRASLHRFLEKRKDRITAKAPYQINNSAAAPSLSGDNKSWLGLAAQSP
modifications: His tag
notes: prokaryotically expressed with His tag, about 30 KD
With B2, the “interaction with GhMYC2” value with GhMYC2 is “strong”. The “interaction with GhTPL” value in the assay with GhTPL is “interacted”. The figures for the “interaction with GhHDA6” value with GhHDA6 [1] and in the assay with GhHDA6 [2] were “interacted” and “interacts”, respectively. The “interaction with GhCOI1” value in the assay on GhCOI1 is “interacted”. In addition, the “interaction with uPAR” value with uPAR was “interacts”.
